This passage reports Kd results from paper PMC11800091 (iScience, 2025).

The target in assay [1] is human immunodeficiency virus type 1 JR-CSF Fc-gp120 protein (HIV-1 JR-CSF) (UniProt P20871). The assay is described as follows: BLI.
Assay [2] concerns the target human immunodeficiency virus type 1 JR-CSF Fc-gp120 protein (HIV-1 JR-CSF, UniProt P20871). The assay is described as follows: BLI.

The molecule LPETG sortag-J3 nanobody (VHH) had a Kd in assay [1] of 1.92 nM.

B1: 3E3 nanobody (VHH)
VHH: EVQLVESGGGLVQPGGSLRLSCAASQFTLESYAIGWFRQAPGKDSEGVACISSSTYYADSVKGRFTISRDNAKNTVYLQMESLKPEDTAVYHCATSGAGSYCTLRAFGSWGQGTQVTVSS
Consider B1, for which the affinity in assay [2], expressed as Kd, was 3.33 nM.

B2: LPETG sortag-3E3 nanobody (VHH)
VHH: B1 VHH
In assay [2], B2 showed a Kd of 2.51 nM.
